Measured values reported in US20210380678A1 (SURROZEN OPERATING, published 2021).
Residue numbers refer to the chain shown, from its start.

T1: human ASGR1 extracellular domain (hASGR1 ECD) (human, UniProt P07306 62-291, biotinylated (His-Avi tag))
T1 construct: His-Avi tag at the N-terminus, biotinylated for BLI; also called human ASGR1 ECD
T1 sequence: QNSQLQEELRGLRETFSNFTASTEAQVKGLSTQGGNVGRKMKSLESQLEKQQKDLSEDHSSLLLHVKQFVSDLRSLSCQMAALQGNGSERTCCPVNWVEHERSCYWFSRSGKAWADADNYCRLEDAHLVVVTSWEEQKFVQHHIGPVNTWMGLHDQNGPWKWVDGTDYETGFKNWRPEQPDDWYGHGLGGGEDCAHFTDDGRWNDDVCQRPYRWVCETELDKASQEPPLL

T2: cynomolgus ASGR1 extracellular domain (cynoASGR1 ECD) (cynomolgus, UniProt P07306 62-291 (human entry))
T2 construct: Cloned with a His/Avi tag
T2 chain: T1 sequence with S3A, E7R, F16L, T91A

B1: LP1-3E20 (antibody, V domains shown)
VH: QVQLQQSGAELAKPGASVKMSCKASGYTFTSYWIHWVKQRPGQGLEWIGYINPSSGYAEYNQKFKVRATLTADKSSSTAYMQLSSLTSEDSAVYYCARESYYSFDYTMDYWGQGTSVTVSS
VL: DIKMTQSPSSMYASLGERVTITCKASQDINSYLSWFQQKPGKSPKTLIYRANRLVDGVPSRFSGSGSGQDYSLTISSLEYEDMGIYYCLQYDDLWTFGGGTKLEIK
notes: Hybridoma antibody as screened
B2: LP1-2I13 (antibody, V domains shown)
VH: EVQLVESGGGLVKPGGSRKLSCAASGFTFSDYGMHWVRQAPEKGLEWVAYISSGSSTIYYADTVKGRFTISRDNAKNTLFLQMTSLRSEDTAMYYCSRKGGFGDYEKSYAMDYWGQGTSVTVSS
VL: DIQMTQSPASLSASVGETVTITCRASENIYSYLVWYQQKQGKSPQLLVYNAKTLAEGVPSRFSGSGSGTQFSLKINSLQPEDFGSYYCQHHYGTWTFGGGIKLEIK
notes: as for B1
B3: LP1-1P13 (antibody, V domains shown)
VH: EVQLQQSGPELVKPGASVKISCKASGYSFTDYFMNWVKQSHGKSLEWIGRFNPFNGQTFYNQEFKGKATLTVDKSSSTAHMELRSLTSEDSAVYYCARRGRYDVYYVLDYWGQGTSVTVSS
VL: DIQMTQSPASLSASVGQTVIITCRTSENIYSNLAWYQQKQGKSPQLLVYAATNLADGVPSRFSGSGSGTQYYLKINSLQSEDFGSYYCQHFWGSTWTFGGGTKLDIK
notes: as for B1
B4: LP1-2I22 (antibody, V domains shown)
VH: B3 VH with D31G, S77D, V107A
VL: B3 VL with Q17E, T25A, A50G, P59T, Y71F, Y72S, N76D, S94T, D105E
notes: as for B1
B5: LP1-6H3 (antibody, V domains shown)
VH: QAYLQQSGAELVRPGASVKMSCKASGYTFSRFDMHWVKQTPRQGLEWIGVIYPGNGDTSYNQKFRDKASLTVDKSSSTAYMQLSSLTSEDSAVYFCASSYYGNPWGQGTTLTVSS
VL: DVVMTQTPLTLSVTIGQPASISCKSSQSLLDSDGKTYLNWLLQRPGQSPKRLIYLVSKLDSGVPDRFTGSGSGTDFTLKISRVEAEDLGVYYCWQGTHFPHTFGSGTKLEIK
notes: as for B1
B6: LP1-1N15 (antibody, V domains shown)
VH: EVQLQQSGPELVKPGASVKMSCKASGYTFTDYYMNWVKQSHGESLEWIGRVIPSNGGTNYNQKFKGKATLTVDKSLTTAYMQLNSLTSEDSAVYFCARGMDYWGPGTSVTVSS
VL: DIKMTQSPSSMYASLGERVTITCKASQDINSHLSWFQQKPGKSPKTLIIRANRLVDGVPSRFSGSGSGQDYSLTISSPEYEEMGIYYCLQYDEFPFTFGGGTKLEIK
notes: as for B1
B7: LP1-1P5 (antibody, V domains shown)
VH: QVQLQQSGPELVRPGTSVKISCKASGYTFLTYWMNWVKQRPGQGLEWIGQIFPATGITYYSEMFKDKATLTEDTSSTTAYMQLSSLTSEATAVYFCARRRAYHSNFFDYWGQGTTLTVSS
VL: DIVMTQSQKFMSTSVGDRVSVTCKASQNVGTNVAWYQQKPGQSPKALIYSASYRYSGVPDRFTGSGSGTDFTLTISNVQSEDLAEYFCQQYNSYPLTFGAGTKLELK
notes: as for B1
B8: LP1-3A24 (antibody, V domains shown)
VH: EVQLQQSGPELVKPGASVKMSCKASGYTFTDYYINWVRQSHGKSLEWIGRVIPSNGGSNYNQKFKGKATLTVDKSLSTAYMHLNSLTSEDSAVYYCATQLGRWGQGTLVTVSA
VL: B7 VL with T31S, Y36F, A51S, S76T, Y94F
notes: as for B1
B9: LP1-2E12 (antibody, V domains shown)
VH: DVQLQESGPGLVKPSQSLSLTCSVTGYSITSGYYWNWIRQFPGNKLEWMGSIGYDDTNHYNPSLKNRISITRDTSKNQFFLKLNSVTTEDTATYYCAGDYPFAFWGQGTLVTVSA
VL: DVVVTQTPLSLPVSFGDRVSISCRSSQSLANSYGNTYLSWYLHKPGQSPQLLIYGISNRFSGVPDRFSGSGSGTDFTLKISTIKPEDLGMYYCLQGTHQPLTFGAGTKLELK
notes: as for B1

Each binder was assayed against T1, human ASGR1 extracellular domain … (assay: hybridoma screening on recombinant ECD).

Does B1 bind?
Result: binds

Does B2 bind?
Result: binds

Does B3 bind?
Result: binds

Does B4 bind?
Result: binds

Does B5 bind?
Result: binds

Does B6 bind?
Result: binds

Does B7 bind?
Result: binds

Does B8 bind?
Result: binds

Does B9 bind?
Result: binds

Target: T2, cynomolgus ASGR1 extracellular domain …
Assay: hybridoma screening on recombinant ECD

Does B1 bind?
Result: binds

Does B2 bind?
Result: binds

Does B3 bind?
Result: binds

Does B4 bind?
Result: binds

Does B5 bind?
Result: binds

Does B6 bind?
Result: binds

Does B7 bind?
Result: binds

Does B8 bind?
Result: binds

Does B9 bind?
Result: binds
